Target: zebrafish procaspase-3b (CP-C117S) (zebrafish (Danio rerio))
Test: SEC; Superdex75 Increase 10/300GL, 25 uM protein, 100 ul loaded, dialysed ~16 h at 25°C; citrate buffer pH 5, 6 and 6.5, phosphate buffer pH 7.5 and 8; column standardised with LMW calibration kit

## zebrafish procaspase-3b (CP-C117S) (enzyme)
  stoichiometry N: 2

— publication PMC9208311
